Data from patent US8034355.

Target: VSV L protein (wild type, rVSV) (Vesicular stomatitis Indiana virus) (UniProt P03523)
Details: 5' Gppp cap (7mGpppAm when fully methylated)

Sequence of UniProt P03523 (P03523 whole entry): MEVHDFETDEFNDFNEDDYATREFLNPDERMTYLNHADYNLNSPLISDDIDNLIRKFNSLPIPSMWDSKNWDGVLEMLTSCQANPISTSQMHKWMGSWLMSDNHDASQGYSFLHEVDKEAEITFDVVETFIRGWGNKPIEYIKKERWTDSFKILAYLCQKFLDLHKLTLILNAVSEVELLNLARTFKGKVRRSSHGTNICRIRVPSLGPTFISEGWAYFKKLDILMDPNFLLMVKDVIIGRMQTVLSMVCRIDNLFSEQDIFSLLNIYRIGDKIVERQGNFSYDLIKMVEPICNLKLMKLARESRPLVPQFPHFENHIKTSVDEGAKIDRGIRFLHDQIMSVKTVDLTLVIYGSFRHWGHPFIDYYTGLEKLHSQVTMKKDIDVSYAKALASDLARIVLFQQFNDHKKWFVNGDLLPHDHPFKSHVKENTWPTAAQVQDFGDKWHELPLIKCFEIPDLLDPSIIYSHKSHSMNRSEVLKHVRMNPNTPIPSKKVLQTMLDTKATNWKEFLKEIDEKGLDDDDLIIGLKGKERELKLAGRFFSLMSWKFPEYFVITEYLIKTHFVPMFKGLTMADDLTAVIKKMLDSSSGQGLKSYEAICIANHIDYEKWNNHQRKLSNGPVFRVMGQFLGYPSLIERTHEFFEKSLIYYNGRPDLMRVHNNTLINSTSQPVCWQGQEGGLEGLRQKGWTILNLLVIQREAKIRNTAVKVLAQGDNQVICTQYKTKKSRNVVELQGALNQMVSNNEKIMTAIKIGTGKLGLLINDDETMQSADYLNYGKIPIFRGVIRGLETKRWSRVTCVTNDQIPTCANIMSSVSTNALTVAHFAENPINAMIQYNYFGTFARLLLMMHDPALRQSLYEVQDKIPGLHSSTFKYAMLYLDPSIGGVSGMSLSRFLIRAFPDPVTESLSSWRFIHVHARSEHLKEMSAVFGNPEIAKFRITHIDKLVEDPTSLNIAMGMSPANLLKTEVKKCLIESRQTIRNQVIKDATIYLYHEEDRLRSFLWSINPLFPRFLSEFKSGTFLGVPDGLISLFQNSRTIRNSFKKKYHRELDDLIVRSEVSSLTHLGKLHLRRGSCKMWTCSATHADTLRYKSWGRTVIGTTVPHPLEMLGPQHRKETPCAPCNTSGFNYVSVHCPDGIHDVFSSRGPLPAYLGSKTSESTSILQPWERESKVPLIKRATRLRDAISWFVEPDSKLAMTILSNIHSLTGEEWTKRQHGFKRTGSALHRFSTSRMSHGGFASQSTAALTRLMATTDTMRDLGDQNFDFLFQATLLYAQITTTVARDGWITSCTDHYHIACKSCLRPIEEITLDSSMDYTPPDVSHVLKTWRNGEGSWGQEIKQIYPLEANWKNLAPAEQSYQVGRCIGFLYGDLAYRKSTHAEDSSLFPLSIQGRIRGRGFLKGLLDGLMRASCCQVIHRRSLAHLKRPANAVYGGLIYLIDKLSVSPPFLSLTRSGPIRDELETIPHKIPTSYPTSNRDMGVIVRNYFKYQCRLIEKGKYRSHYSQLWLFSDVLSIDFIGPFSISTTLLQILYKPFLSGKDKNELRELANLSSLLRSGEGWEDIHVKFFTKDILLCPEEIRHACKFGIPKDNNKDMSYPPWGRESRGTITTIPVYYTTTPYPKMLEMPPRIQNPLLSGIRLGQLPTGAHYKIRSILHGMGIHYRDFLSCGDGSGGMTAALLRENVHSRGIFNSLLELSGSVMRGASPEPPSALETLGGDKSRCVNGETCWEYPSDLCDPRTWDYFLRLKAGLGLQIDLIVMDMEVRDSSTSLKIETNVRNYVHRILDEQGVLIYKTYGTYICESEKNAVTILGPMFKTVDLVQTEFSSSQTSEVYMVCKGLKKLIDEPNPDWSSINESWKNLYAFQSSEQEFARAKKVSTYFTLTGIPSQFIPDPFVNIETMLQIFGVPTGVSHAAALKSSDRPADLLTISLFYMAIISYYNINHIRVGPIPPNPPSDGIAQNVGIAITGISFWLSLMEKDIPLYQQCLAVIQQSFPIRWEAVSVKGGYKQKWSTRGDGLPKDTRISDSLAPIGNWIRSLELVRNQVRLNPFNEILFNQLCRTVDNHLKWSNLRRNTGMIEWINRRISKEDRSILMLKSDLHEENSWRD

AACAG gave an activity (% 7mGp of released cap) of 97.
